The results in this text go back to paper PMC3372767 (Biochimica et Biophysica Acta, 2012).

For assay [1], the target named is full-length ectodomain of human CSF-1R (hCSF-1R D1-D5) (human, UniProt P07333 20-517). The assay can be described thus: ITC.
Assay [2] addresses N-terminal three Ig-like domains of human CSF-1R (hCSF-1R D1-D3) (human, UniProt P07333 20-298). The assay is described as follows: ITC.

Chain of full-length ectodomain of human CSF-1R (hCSF-1R D1-D5) (P07333 20-517): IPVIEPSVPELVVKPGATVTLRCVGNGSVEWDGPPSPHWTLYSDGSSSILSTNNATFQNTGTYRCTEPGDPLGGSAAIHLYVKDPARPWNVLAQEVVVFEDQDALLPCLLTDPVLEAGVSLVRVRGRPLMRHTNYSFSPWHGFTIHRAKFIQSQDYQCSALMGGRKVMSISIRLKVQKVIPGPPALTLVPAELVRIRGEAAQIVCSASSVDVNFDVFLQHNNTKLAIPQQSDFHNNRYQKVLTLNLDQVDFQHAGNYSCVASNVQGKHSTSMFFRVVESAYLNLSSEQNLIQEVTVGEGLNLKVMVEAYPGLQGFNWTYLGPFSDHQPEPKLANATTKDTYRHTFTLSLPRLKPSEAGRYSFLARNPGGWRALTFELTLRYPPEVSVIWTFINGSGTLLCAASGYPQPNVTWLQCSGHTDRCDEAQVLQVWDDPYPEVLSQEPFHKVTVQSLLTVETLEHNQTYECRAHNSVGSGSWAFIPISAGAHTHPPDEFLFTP
Chain of N-terminal three Ig-like domains of human CSF-1R (hCSF-1R D1-D3) (P07333 20-298): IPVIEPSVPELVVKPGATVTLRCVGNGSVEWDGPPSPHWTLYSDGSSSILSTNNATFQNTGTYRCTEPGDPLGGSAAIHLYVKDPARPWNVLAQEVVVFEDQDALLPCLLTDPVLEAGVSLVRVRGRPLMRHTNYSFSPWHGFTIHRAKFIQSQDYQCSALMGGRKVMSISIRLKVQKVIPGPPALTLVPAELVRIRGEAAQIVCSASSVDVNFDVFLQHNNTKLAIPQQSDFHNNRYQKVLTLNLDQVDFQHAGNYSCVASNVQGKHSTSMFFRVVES

B1: human IL-34 (ligand, UniProt Q6ZMJ4 21-242, looked up)
chain: NEPLEMWPLTQNEECTVTGFLRDKLQYRSRLQYMKHYFPINYKISVPYEGVFRIANVTRLQRAQVSERELRYLWVLVSLSATESVQDVLLEGHPSWKYLQEVETLLLNVQQGLTDVEVSPKVESVLSLLNAPGPNLKLVRPKALLDNCFRVMELLYCSCCKQSSVLNWQDCEVPSPQSCSPEPSLQYAATQLYPPPPWSPSSPPHSTGSVRPVRAQGEGLLP
Take B1: the “fold higher affinity than to CSF-1R D1-D3” value in assay [1] was approximately 400 fold. The “stoichiometry N” value in assay [1] and in assay [2] was 1 each time.
